Changes are numbered by the printed parent chain.
Target: T1, cynomolgus monkey FcγRIIIaS extracellular domain, C-terminal His-tag (cynomolgus monkey, UniProt A3RFZ7 21-206 (rhesus entry))
T1 construct: also called cyno FcγRIIIaS; cynoFcγRIIIaS; not shown: His-tag added to C-terminus
Assay: SPR (Biacore), antibody captured, FcgR analyte, 25 C

T1 sequence (A3RFZ7 21-206): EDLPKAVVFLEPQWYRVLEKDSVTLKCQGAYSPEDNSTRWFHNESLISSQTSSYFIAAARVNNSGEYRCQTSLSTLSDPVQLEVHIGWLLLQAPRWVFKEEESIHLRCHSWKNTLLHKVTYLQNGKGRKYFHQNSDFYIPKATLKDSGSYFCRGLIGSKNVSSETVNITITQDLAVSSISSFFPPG

B1: MS_M103205H795-SG1/M103202L889-SK1 (antibody, human IgG1, kappa)
heavy: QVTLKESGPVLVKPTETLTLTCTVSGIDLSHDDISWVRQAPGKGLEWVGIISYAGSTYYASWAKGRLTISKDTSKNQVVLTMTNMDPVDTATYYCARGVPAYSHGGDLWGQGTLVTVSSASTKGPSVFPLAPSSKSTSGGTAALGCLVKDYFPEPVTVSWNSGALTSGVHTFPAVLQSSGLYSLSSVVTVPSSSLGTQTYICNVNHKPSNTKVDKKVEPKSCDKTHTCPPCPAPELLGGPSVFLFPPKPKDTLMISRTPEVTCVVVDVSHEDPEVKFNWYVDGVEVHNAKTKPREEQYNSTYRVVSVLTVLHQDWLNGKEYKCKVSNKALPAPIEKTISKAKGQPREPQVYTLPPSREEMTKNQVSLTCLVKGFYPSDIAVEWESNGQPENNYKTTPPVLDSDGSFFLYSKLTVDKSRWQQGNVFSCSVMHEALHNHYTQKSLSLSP
light: DIVMTQSPATLSLSPGERATLSCTSSQSVYHANWLSWFQQKPGQPPKLLIYWASTLAYGVPSRFSGSGSGTDFTLTISSLQPEDAATYYCAGGYGGGRYAFGQGTKVEIKRTVAAPSVFIFPPSDEQLKSGTASVVCLLNNFYPREAKVQWKVDNALQSGNSQESVTEQDSKDSTYSLSSTLTLSKADYEKHKVYACEVTHQGLSSPVTKSFNRGEC
notes: Parent antibody; also called MS1032LO06-SG1
Kd: 360 nM

B2: M103205H795-MY142/M103202L889-SK1 (antibody, human IgG1, kappa)
heavy: QVTLKESGPVLVKPTETLTLTCTVSGIDLSHDDISWVRQAPGKGLEWVGIISYAGSTYYASWAKGRLTISKDTSKNQVVLTMTNMDPVDTATYYCARGVPAYSHGGDLWGQGTLVTVSSASTKGPSVFPLAPSSKSTSGGTAALGCLVKDYFPEPVTVSWNSGALTSGVHTFPAVLQSSGLYSLSSVVTVPSSSLGTQTYICNVNHKPSNTKVDKKVEPKSCDKTHTCPPCPAPELLEGPSVFLFPPKPKDTLMISRTPEVTCVVVDVSEEDPEVKFNWYVDGVEVHNAKTKPREEQYNSTYRVVSVLTVLHQDWLNGKEYKCKVSNKALPAPIEKTISKAKGQPREPQVYTLPPSREEMTKNQVSLTCLVKGFYPSDIAVEWESNGQPENNYKTTPMVLDSDGSFFLYSKLTVDKSRWQQGNVFSCSVMHEALHNHYTQKSLSLSP
light: B1 light
Kd: 140 nM

B3: M103205H795-MY143/M103202L889-SK1 (antibody, human IgG1, kappa)
heavy: B2 heavy with E238S
light: B1 light
Kd: 280 nM

B4: M103205H795-MY209/M103202L889-SK1 (antibody, human IgG1, kappa)
heavy: B2 heavy with E238N, E270D, Q297L, K328T, A332K, M398P
light: B1 light
Kd: 2200 nM

B5: M103205H795-MY213/M103202L889-SK1 (antibody, human IgG1, kappa)
heavy: B2 heavy with E238N, E270D, A332K, M398K
light: B1 light
Kd: 1900 nM

B6: M103205H795-MY219/M103202L889-SK1 (antibody, human IgG1, kappa)
heavy: B2 heavy with E238G, G239Y, E270D, A332K, M398P
light: B1 light
Kd: 6200 nM

B7: M103205H795-MY227/M103202L889-SK1 (antibody, human IgG1, kappa)
heavy: B2 heavy with E238G, G239Y, E270D, A332K, M398K
light: B1 light
Kd: 3900 nM

B8: M103205H795-MY228/M103202L889-SK1 (antibody, human IgG1, kappa)
heavy: B2 heavy with E238G, G239Y, E270D, Q297L, A332K, M398P
light: B1 light
Kd: 9700 nM

B9: M103205H795-MY229/M103202L889-SK1 (antibody, human IgG1, kappa)
heavy: B2 heavy with E238G, G239Y, E270D, Q297L, A332K, M398K
light: B1 light
Kd: 4200 nM

B10: M103205H795-MY242/M103202L889-SK1 (antibody, human IgG1, kappa)
heavy: B2 heavy with E238G, P240I, E270D, A332K, M398K
light: B1 light
Kd: 990 nM

B11: M103205H795-MY269/M103202L889-SK1 (antibody, human IgG1, kappa)
heavy: B2 heavy with E238M, E270D, A332K, M398K
light: B1 light
Kd: 220 nM

B12: M103205H795-MY270/M103202L889-SK1 (antibody, human IgG1, kappa)
heavy: B2 heavy with E238H, E270D, A332K, M398K
light: B1 light
Kd: 1100 nM

B13: M103205H795-MY271/M103202L889-SK1 (antibody, human IgG1, kappa)
heavy: B2 heavy with E238V, E270D, A332K, M398K
light: B1 light
Kd: 870 nM

B14: M103205H795-MY272/M103202L889-SK1 (antibody, human IgG1, kappa)
heavy: B2 heavy with E238Q, E270D, A332K, M398K
light: B1 light
Kd: 290 nM

B15: M103205H795-MY273/M103202L889-SK1 (antibody, human IgG1, kappa)
heavy: B2 heavy with E238L, E270D, A332K, M398K
light: B1 light
Kd: 1700 nM

B16: M103205H795-MY274/M103202L889-SK1 (antibody, human IgG1, kappa)
heavy: B2 heavy with E238T, E270D, A332K, M398K
light: B1 light
Kd: 670 nM

B17: M103205H795-MY276/M103202L889-SK1 (antibody, human IgG1, kappa)
heavy: B2 heavy with E238I, E270D, A332K, M398K
light: B1 light
Kd: 1200 nM

B18: M103205H795-MY278/M103202L889-SK1 (antibody, human IgG1, kappa)
heavy: B2 heavy with E238M, E270D, Q297L, A332K, M398P
light: B1 light
Kd: 740 nM

B19: M103205H795-MY279/M103202L889-SK1 (antibody, human IgG1, kappa)
heavy: B2 heavy with E238H, E270D, Q297L, A332K, M398P
light: B1 light
Kd: 2400 nM

B20: M103205H795-MY280/M103202L889-SK1 (antibody, human IgG1, kappa)
heavy: B2 heavy with E238V, E270D, Q297L, A332K, M398P
light: B1 light
Kd: 1800 nM

B21: M103205H795-MY281/M103202L889-SK1 (antibody, human IgG1, kappa)
heavy: B2 heavy with E238Q, E270D, Q297L, A332K, M398P
light: B1 light
Kd: 740 nM

B22: M103205H795-MY292/M103202L889-SK1 (antibody, human IgG1, kappa)
heavy: B2 heavy with E238G, G239Y, E270D, Q297L, A332K
light: B1 light
Kd: 4000 nM

B23: M103205H795-MY293/M103202L889-SK1 (antibody, human IgG1, kappa)
heavy: B2 heavy with E238G, G239Y, Q297L, A332K, M398K
light: B1 light
Kd: 4200 nM

B24: M103205H795-MY308/M103202L889-SK1 (antibody, human IgG1, kappa)
heavy: B2 heavy with E238T, A332K, M398P
light: B1 light
Kd: 2900 nM

B25: M103205H795-MY309/M103202L889-SK1 (antibody, human IgG1, kappa)
heavy: B2 heavy with E238T, A332K
light: B1 light
Kd: 1200 nM

B26: M103205H795-MY310/M103202L889-SK1 (antibody, human IgG1, kappa)
heavy: B2 heavy with E238T, K328T, A332K, M398P
light: B1 light
Kd: 1800 nM

B27: M103205H795-MY311/M103202L889-SK1 (antibody, human IgG1, kappa)
heavy: B2 heavy with E238T, Q297L, A332K, M398P
light: B1 light
Kd: 2400 nM

B28: M103205H795-MY312/M103202L889-SK1 (antibody, human IgG1, kappa)
heavy: B2 heavy with E238T, K328T, A332K
light: B1 light
Kd: 650 nM

B29: M103205H795-MY318/M103202L889-SK1 (antibody, human IgG1, kappa)
heavy: B2 heavy with E238L, K328T, A332K
light: B1 light
Kd: 1500 nM

B30: M103205H795-MY321/M103202L889-SK1 (antibody, human IgG1, kappa)
heavy: B2 heavy with E238H, E270D, A332K
light: B1 light
Kd: 11000 nM

Reference: US20200317768A1 (published 2020)
